Columns and labels:
[1] = biological target: T1, human FcγRIIb (human, UniProt P31994 43-217, limits assumed); experiment: SPR, captured antibody;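 note: antibody captured on a sensor chip, Fcγ receptor flowed over at 25 °C, receptor binding normalized to the captured antibody amount and expressed relative to the reference antibody ×100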
T1 construct: also called FcgRIIb; hFcgRIIb
T1 sequence: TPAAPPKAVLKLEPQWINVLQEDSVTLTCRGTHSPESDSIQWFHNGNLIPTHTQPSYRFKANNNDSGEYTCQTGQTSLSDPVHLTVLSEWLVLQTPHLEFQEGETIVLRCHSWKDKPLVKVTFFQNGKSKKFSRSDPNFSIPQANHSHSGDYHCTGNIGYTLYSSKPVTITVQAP

[2] = biological target: T2, human FcγRIIa(R) (human, UniProt P12318 36-217); experiment: SPR, captured antibody;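 note: antibody captured on a sensor chip, Fcγ receptor flowed over at 25 °C, receptor binding normalized to the captured antibody amount and expressed relative to the reference antibody ×100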
T2 construct: also called FcgRIIaR; hFcgRIIa(R)
T2 chain: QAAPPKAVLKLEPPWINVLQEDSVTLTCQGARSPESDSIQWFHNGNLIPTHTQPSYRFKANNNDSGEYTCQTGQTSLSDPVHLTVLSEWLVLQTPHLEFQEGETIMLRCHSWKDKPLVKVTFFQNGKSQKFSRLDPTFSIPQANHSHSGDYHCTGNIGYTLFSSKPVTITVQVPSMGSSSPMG

[3] = biological target: T3, human FcγRIa (human, UniProt P12314 16-292, limits assumed); experiment: SPR, captured antibody;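 note: antibody captured on a sensor chip, Fcγ receptor flowed over at 25 °C, receptor binding normalized to the captured antibody amount and expressed relative to the reference antibody ×100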
T3 construct: also called FcgRIa; hFcgRIa

[4] = biological target: T4, human FcγRIIa(H) (human, UniProt P12318 36-217); experiment: SPR, captured antibody;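 note: antibody captured on a sensor chip, Fcγ receptor flowed over at 25 °C, receptor binding normalized to the captured antibody amount and expressed relative to the reference antibody ×100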
T4 construct: also called FcgRIIaH; hFcgRIIa(H)
T4 sequence: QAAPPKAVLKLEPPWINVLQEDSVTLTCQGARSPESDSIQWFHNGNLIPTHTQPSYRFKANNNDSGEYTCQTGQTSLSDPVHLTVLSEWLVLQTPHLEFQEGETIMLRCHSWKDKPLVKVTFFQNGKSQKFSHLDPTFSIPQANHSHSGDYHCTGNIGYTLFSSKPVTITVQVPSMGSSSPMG

[5] = biological target: T5, FcγRIIa type H (human, UniProt P12318 36-217); experiment: SPR (Biacore), bound amount, IL6R-BF648/IL6R-L = 100
T5 construct: also called FcγRIIaH; FcγRIIH
T5 sequence: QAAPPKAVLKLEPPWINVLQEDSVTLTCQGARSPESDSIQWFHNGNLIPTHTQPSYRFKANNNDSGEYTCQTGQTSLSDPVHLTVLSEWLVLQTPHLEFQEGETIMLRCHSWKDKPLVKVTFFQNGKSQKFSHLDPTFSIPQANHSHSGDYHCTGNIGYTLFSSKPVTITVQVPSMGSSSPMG
Protocol: (§1) According to the following method, relative binding activities were calculated for the results of analyzing interactions with the respective FcγRs.

[6] = biological target: T6, FcγRIa (human, UniProt P12314 16-292, limits assumed); experiment: as above
T6 construct: also called FcgRIa; CD64
Protocol: as §1

[7] = biological target: T7, FcγRIIb (human, UniProt P31994 43-217, limits assumed); experiment: as above
T7 construct: also called FcgRIIb; FcγIIB
T7 sequence: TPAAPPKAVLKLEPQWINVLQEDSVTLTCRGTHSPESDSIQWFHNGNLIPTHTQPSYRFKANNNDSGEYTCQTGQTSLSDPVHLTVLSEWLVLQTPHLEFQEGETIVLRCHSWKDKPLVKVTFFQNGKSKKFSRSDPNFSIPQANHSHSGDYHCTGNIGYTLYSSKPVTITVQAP
Protocol: as §1

T3 sequence (P12314 16-292 limits assumed): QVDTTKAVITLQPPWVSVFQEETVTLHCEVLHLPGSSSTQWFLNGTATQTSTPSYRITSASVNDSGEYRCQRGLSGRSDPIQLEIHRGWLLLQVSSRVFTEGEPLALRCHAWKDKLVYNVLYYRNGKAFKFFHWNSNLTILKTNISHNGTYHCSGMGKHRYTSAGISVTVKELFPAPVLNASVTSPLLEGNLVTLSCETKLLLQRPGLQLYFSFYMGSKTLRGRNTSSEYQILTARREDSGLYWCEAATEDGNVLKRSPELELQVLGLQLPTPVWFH
T6 sequence (P12314 16-292 limits assumed): as above

Binder	relative binding activity [1]	relative binding activity [2]	relative binding activity [3]	relative binding activity [4]	relative binding activity [5]	relative binding activity [6]	relative binding activity [7]
GpH7-B3 S298R/GpL16-k0 (antibody, human IgG1, B3 variant; copies: 2 + 2) heavy: not shown light: DIVMTQSPLSLPVTPGEPASISCQASESLVHSNRNTYLHWYLQKPGQSPQLLIYKVSNRFSGVPDRFSGSGSGTDFTLKISRVEAEDVGVYYCSQNTHVPPTFGQGTKVEIE	22 % of GpH7-B3/GpL16-k0	62 % of GpH7-B3/GpL16-k0	92 % of GpH7-B3/GpL16-k0	36 % of GpH7-B3/GpL16-k0			
GpH7-B3 Y296R/GpL16-k0 (antibody, human IgG1, B3 variant; copies: 2 + 2) heavy: not shown light: DIVMTQSPLSLPVTPGEPASISCQASESLVHSNRNTYLHWYLQKPGQSPQLLIYKVSNRFSGVPDRFSGSGSGTDFTLKISRVEAEDVGVYYCSQNTHVPPTFGQGTKVEIE	52 % of GpH7-B3/GpL16-k0	77 % of GpH7-B3/GpL16-k0	100 % of GpH7-B3/GpL16-k0	74 % of GpH7-B3/GpL16-k0			
GpH7-B3 S324K/GpL16-k0 (antibody, human IgG1, B3 variant; copies: 2 + 2) heavy: not shown light: DIVMTQSPLSLPVTPGEPASISCQASESLVHSNRNTYLHWYLQKPGQSPQLLIYKVSNRFSGVPDRFSGSGSGTDFTLKISRVEAEDVGVYYCSQNTHVPPTFGQGTKVEIE	64 % of GpH7-B3/GpL16-k0	75 % of GpH7-B3/GpL16-k0	94 % of GpH7-B3/GpL16-k0	97 % of GpH7-B3/GpL16-k0			
GpH7-B3 Y296K/GpL16-k0 (antibody, human IgG1, B3 variant; copies: 2 + 2) heavy: not shown light: DIVMTQSPLSLPVTPGEPASISCQASESLVHSNRNTYLHWYLQKPGQSPQLLIYKVSNRFSGVPDRFSGSGSGTDFTLKISRVEAEDVGVYYCSQNTHVPPTFGQGTKVEIE	45 % of GpH7-B3/GpL16-k0	70 % of GpH7-B3/GpL16-k0	99 % of GpH7-B3/GpL16-k0	66 % of GpH7-B3/GpL16-k0			
GpH7-B3 S298Y/GpL16-k0 (antibody, human IgG1, B3 variant; copies: 2 + 2) heavy: not shown light: DIVMTQSPLSLPVTPGEPASISCQASESLVHSNRNTYLHWYLQKPGQSPQLLIYKVSNRFSGVPDRFSGSGSGTDFTLKISRVEAEDVGVYYCSQNTHVPPTFGQGTKVEIE	23 % of GpH7-B3/GpL16-k0	33 % of GpH7-B3/GpL16-k0	100 % of GpH7-B3/GpL16-k0	35 % of GpH7-B3/GpL16-k0			
GpH7-B3 Y296G/GpL16-k0 (antibody, human IgG1, B3 variant; copies: 2 + 2) heavy: not shown light: DIVMTQSPLSLPVTPGEPASISCQASESLVHSNRNTYLHWYLQKPGQSPQLLIYKVSNRFSGVPDRFSGSGSGTDFTLKISRVEAEDVGVYYCSQNTHVPPTFGQGTKVEIE	58 % of GpH7-B3/GpL16-k0	77 % of GpH7-B3/GpL16-k0	100 % of GpH7-B3/GpL16-k0	83 % of GpH7-B3/GpL16-k0			
GpH7-B3 Y300K/GpL16-k0 (antibody, human IgG1, B3 variant; copies: 2 + 2) heavy: not shown light: DIVMTQSPLSLPVTPGEPASISCQASESLVHSNRNTYLHWYLQKPGQSPQLLIYKVSNRFSGVPDRFSGSGSGTDFTLKISRVEAEDVGVYYCSQNTHVPPTFGQGTKVEIE	45 % of GpH7-B3/GpL16-k0	59 % of GpH7-B3/GpL16-k0	95 % of GpH7-B3/GpL16-k0	56 % of GpH7-B3/GpL16-k0			
GpH7-B3 S324P/GpL16-k0 (antibody, human IgG1, B3 variant; copies: 2 + 2) heavy: not shown light: DIVMTQSPLSLPVTPGEPASISCQASESLVHSNRNTYLHWYLQKPGQSPQLLIYKVSNRFSGVPDRFSGSGSGTDFTLKISRVEAEDVGVYYCSQNTHVPPTFGQGTKVEIE	36 % of GpH7-B3/GpL16-k0	34 % of GpH7-B3/GpL16-k0	91 % of GpH7-B3/GpL16-k0	14 % of GpH7-B3/GpL16-k0			
GpH7-B3 Y296P/GpL16-k0 (antibody, human IgG1, B3 variant; copies: 2 + 2) heavy: not shown light: DIVMTQSPLSLPVTPGEPASISCQASESLVHSNRNTYLHWYLQKPGQSPQLLIYKVSNRFSGVPDRFSGSGSGTDFTLKISRVEAEDVGVYYCSQNTHVPPTFGQGTKVEIE	7 % of GpH7-B3/GpL16-k0	10 % of GpH7-B3/GpL16-k0	45 % of GpH7-B3/GpL16-k0	8 % of GpH7-B3/GpL16-k0			

Results, then the binder that gave them:

relative binding activity [1]	relative binding activity [2]	relative binding activity [3]	relative binding activity [4]	relative binding activity [5]	relative binding activity [6]	relative binding activity [7]	Binder
25 % of GpH7-B3/GpL16-k0	38 % of GpH7-B3/GpL16-k0	91 % of GpH7-B3/GpL16-k0	34 % of GpH7-B3/GpL16-k0				GpH7-B3 Y300R/GpL16-k0 (antibody, human IgG1, B3 variant; copies: 2 + 2) heavy: not shown light: DIVMTQSPLSLPVTPGEPASISCQASESLVHSNRNTYLHWYLQKPGQSPQLLIYKVSNRFSGVPDRFSGSGSGTDFTLKISRVEAEDVGVYYCSQNTHVPPTFGQGTKVEIE
-1 % of GpH7-B3/GpL16-k0	-1 % of GpH7-B3/GpL16-k0	9 % of GpH7-B3/GpL16-k0	0 % of GpH7-B3/GpL16-k0				GpH7-B3 Y300P/GpL16-k0 (antibody, human IgG1, B3 variant; copies: 2 + 2) heavy: not shown light: DIVMTQSPLSLPVTPGEPASISCQASESLVHSNRNTYLHWYLQKPGQSPQLLIYKVSNRFSGVPDRFSGSGSGTDFTLKISRVEAEDVGVYYCSQNTHVPPTFGQGTKVEIE
				224 % of control	104 % of control		IL6R-BP130/IL6R-L (antibody, human IgG1, IgG1; Fc variant of IL6R-B3; copies: 2 + 2) heavy: QVQLQESGPGLVKPSETLSLTCAVSGHSISHDHAWSWVRQPPGEGLEWIGFISYSGITNYNPSLQGRVTISRDNSKNTLYLQMNSLRAEDTAVYYCARSLARTTAMDYWGEGTLVTVSSASTKGPSVFPLAPSSKSTSGGTAALGCLVKDYFPEPVTVSWNSGALTSGVHTFPAVLQSSGLYSLSSVVTVPSSSLGTQTYICNVNHKPSNTKVDKKVEPKSCDKTHTCPPCPAPDLLGGDSVFLFPPKPKDTLMISRTPEVTCVVVDVSHEDPEVKFNWYVDGVEVHNAKTKPREEQYNSTYRVVSVLTVLHQDWLNGKEYKCKMSNKALPKPIEKTISKAKGQPREPQVYTLPPSRDELTKNQVSLTCLVKGFYPSDIAVEWESNGQPENNYKTTPPVLDSDGSFFLYSKLTVDKSRWQQGNVFSCSVMHEALHNHYTQESLSLSP light: DIQMTQSPSSLSASVGDRVTITCRASQDISSYLNWYQQKPGKAPKLLIYYTSRLHSGVPSRFSGSGSGTDFTFTISSLQPEDIATYYCQQGNTLPYTFGQGTKVEIK
				203 % of control		156 % of control	IL6R-BP146/IL6R-L (antibody, human IgG1, IgG1; Fc variant of IL6R-B3; copies: 2 + 2) heavy: QVQLQESGPGLVKPSETLSLTCAVSGHSISHDHAWSWVRQPPGEGLEWIGFISYSGITNYNPSLQGRVTISRDNSKNTLYLQMNSLRAEDTAVYYCARSLARTTAMDYWGEGTLVTVSSASTKGPSVFPLAPSSKSTSGGTAALGCLVKDYFPEPVTVSWNSGALTSGVHTFPAVLQSSGLYSLSSVVTVPSSSLGTQTYICNVNHKPSNTKVDKKVEPKSCDKTHTCPPCPAPEYLGDDSVFLFPPKPKDTLMISRTPEVTCVVVDVSHEDPEVKFNWYVDGVEVHNAKTKPREEQYNSTYRVVSVLTVLHQDWLNGKEYKCKVSNAALPAPIEKTISKAKGQPREPQVYTLPPSRDELTKNQVSLTCLVKGFYPSDIAVEWESNGQPENNYKTTPPVLDSDGSFFLYSKLTVDKSRWQQGNVFSCSVMHEALHNHYTQESLSLSP light: DIQMTQSPSSLSASVGDRVTITCRASQDISSYLNWYQQKPGKAPKLLIYYTSRLHSGVPSRFSGSGSGTDFTFTISSLQPEDIATYYCQQGNTLPYTFGQGTKVEIK
				137 % of control		165 % of control	IL6R-BP204/IL6R-L (antibody, human IgG1, IgG1; Fc variant of IL6R-B3; copies: 2 + 2) heavy: QVQLQESGPGLVKPSETLSLTCAVSGHSISHDHAWSWVRQPPGEGLEWIGFISYSGITNYNPSLQGRVTISRDNSKNTLYLQMNSLRAEDTAVYYCARSLARTTAMDYWGEGTLVTVSSASTKGPSVFPLAPSSKSTSGGTAALGCLVKDYFPEPVTVSWNSGALTSGVHTFPAVLQSSGLYSLSSVVTVPSSSLGTQTYICNVNHKPSNTKVDKKVEPKSCDKTHTCPPCPAPDLLGGDSVFLFPPKPKDTLMISRTPEVTCVVVDVSHEDGEVKFNWYVDGVEVHNAKTKPREEQYNSTYRVVSVLTVLHQDWLNGKEYKCKVSNAALPRPIEKTISKAKGQPREPQVYTLPPSRDELTKNQVSLTCLVKGFYPSDIAVEWESNGQPENNYKTTPPVLDSDGSFFLYSKLTVDKSRWQQGNVFSCSVMHEALHNHYTQESLSLSP light: DIQMTQSPSSLSASVGDRVTITCRASQDISSYLNWYQQKPGKAPKLLIYYTSRLHSGVPSRFSGSGSGTDFTFTISSLQPEDIATYYCQQGNTLPYTFGQGTKVEIK

— patent publication US20200199241A1 (Chugai, published 2020)
